# Measurements as given in patent US20190077867A1 (REYOUNG SUZHOU BIOLOGY SCIENCE AND TECHNOLOGY, published 2019).
# T1: B7-1 (Homo sapiens (Human), UniProt P33681 35-242)
# T1 construct: probably human
# T1 sequence: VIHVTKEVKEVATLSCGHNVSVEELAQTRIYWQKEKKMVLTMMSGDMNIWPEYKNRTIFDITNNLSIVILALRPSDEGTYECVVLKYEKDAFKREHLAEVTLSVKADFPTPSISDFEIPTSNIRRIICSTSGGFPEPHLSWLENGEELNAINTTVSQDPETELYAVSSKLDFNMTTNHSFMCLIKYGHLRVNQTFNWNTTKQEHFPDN
# How the values were obtained:
# [1] = target: T2, recombinant human PD-L1 fusion protein (human, UniProt Q9NZQ7 19-238); experiment: ELISA, recombinant human PD-L1 fusion protein coated, antibody after 4 days in monkey serum at 37 °C, goat anti-human FAB-HRP, OD450
# T2 construct: This may be the same reagent as hPD-L1-Fc
# T2 sequence (Q9NZQ7 19-238): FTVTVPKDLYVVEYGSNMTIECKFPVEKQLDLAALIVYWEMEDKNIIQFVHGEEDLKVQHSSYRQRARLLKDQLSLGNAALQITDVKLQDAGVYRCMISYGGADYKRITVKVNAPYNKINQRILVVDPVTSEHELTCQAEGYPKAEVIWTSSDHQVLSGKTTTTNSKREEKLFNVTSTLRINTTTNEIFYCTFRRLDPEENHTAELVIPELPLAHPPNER
# Description: (§1) The recombinant human PD-L1 fusion protein is stored at the concentration of 0.5 μg/mL at 4° C. overnight in enveloping buffer. Remove the solution in wells the next day and wash with PBST for twice. Then add 1% BSA, seal at 37° C. for 1 hour, then wash with PBST for twice. The stable antibody samples are diluted three folds starting from 1 μg/mL for 8 concentration gradients, incubated at 37° C. for 1 hour, and washed with PBST for three times. Dilute with goat anti-human FAB-HRP at ratio of 1:10000, incubate for 1 hour at 37 C, and wash with PBST for three times. Add TMB for 15 min coloration, stop the reaction with 0.5M H₂SO₄ and read out the absorbance at 450 nm.
# [2] = target: T2, recombinant human PD-L1 fusion protein; experiment: ELISA on coated recombinant human PD-L1 fusion protein, goat anti-human FAB-HRP
# Description: The recombinant human PD-L1 fusion protein of 0.5 μg/mL is stored at 4° C. overnight in enveloping buffer. Remove the solution in wells the next day and wash with PBST for twice. Then add 1% BSA and seal at 37° C. for 1 hour. Wash with PBST for twice. The antibody is diluted three folds starting from 5 μg/mL for 8 concentration gradients, incubated at 25° C. for 1 hour, and washed with PBST for three time. Dilute with goat anti-human FAB-HRP at ratio of 1:10000, incubate for 1 hour at 37 C, and wash with PBST for three times. Add TMB for 15 min coloration, stop the reaction with 0.5M H₂SO₄ and read out the absorbance at 450 nm.
# [3] = target: T2, recombinant human PD-L1 fusion protein; experiment: ELISA, recombinant human PD-L1 fusion protein coated, antibody after 1 day in monkey serum at 37 °C, goat anti-human FAB-HRP, OD450
# Description: as §1
# [4] = target: T2, recombinant human PD-L1 fusion protein; experiment: competition ELISA on coated recombinant human PD-L1 fusion protein, PD1-Fc-Biotin as competitor, streptavidin-HRP
# Description: The recombinant human PD-L1 fusion protein of 0.5 μg/mL is stored at 4° C. overnight in enveloping buffer. Remove the solution in wells the next day and wash with PBST for twice. Then add 1% BSA, seal at 37° C. for 1 hour, then wash with PBST for twice. The antibody is diluted 2.5 folds starting from 10 μg/mL for 8 concentration gradients, mixed with same volume of 1 μg/mL PD1-Fc-Biotin, incubated at 25° C. for 1 hour, and washed with PBST for one time. Incubate with goat streptavidin-HRP at ratio of 1:10000 for 1 hour at 37 C, and wash with PBST for three times. Add TMB for 15 min coloration, stop the reaction with 0.5M H₂SO₄ and read out the absorbance at 450 nm.
# [5] = target: T2, recombinant human PD-L1 fusion protein; experiment: ELISA, recombinant human PD-L1 fusion protein coated, antibody after 7 days in monkey serum at 37 °C, goat anti-human FAB-HRP, OD450
# Description: as §1
# [6] = target: T3, recombinant human PD-L1 expressed on the surface of CHO cells (human, UniProt Q9NZQ7 19-290); experiment: cell ELISA on CHO cells expressing human PD-L1, anti-human-Eu fluorescence
# T3 construct: whole, on cells; also called CHO cells transfected by PD-L1; CHO cells with PD-L1 expressed on the surface
# T3 sequence (Q9NZQ7 19-290): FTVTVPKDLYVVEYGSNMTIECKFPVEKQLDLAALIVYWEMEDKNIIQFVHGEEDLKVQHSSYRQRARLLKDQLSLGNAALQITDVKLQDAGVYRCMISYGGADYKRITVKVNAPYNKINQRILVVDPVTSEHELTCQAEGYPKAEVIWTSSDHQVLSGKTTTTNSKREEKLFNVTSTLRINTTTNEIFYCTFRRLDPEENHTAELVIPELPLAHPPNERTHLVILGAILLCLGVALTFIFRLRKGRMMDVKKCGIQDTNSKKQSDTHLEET
# Description: A Chinese hamster ovary (CHO) cell line expressing recombinant human PD-L1 on cell surface is constructed and its binding specificity to humanized antibody anti-PD-L1-1 is determined by ELISA assay. The cells are overlaid on PD-L1 the day before the test, and 1/200 cells are filled with T75 bottles on each well. Then add 1% BSA and seal at 37° C. for 1 hour. The antibody is diluted three folds starting from 5 μg/mL for 8 concentration gradients, incubated at 25° C. for 1 hour, and washed with PBST for one time. The volume of 50 ng/mL anti-human-Eu added to each well is 100 μL, with reaction time of 0.5 hours at 25° C., and washing with PBS for one time. Add fluorescence enhancement liquid and read values at exciting light 337 nm/emitted light 620 nm.
# [7] = target: T2, recombinant human PD-L1 fusion protein; experiment: ELISA, recombinant human PD-L1 fusion protein coated, antibody after 0 days in monkey serum at 37 °C, goat anti-human FAB-HRP, OD450
# Description: as §1
# B7-1 = target: T1, B7-1; experiment: ELISA on coated protein, goat anti-human FAB-HRP, OD450
# Description: The binding of B7 family members B7-1, B7-2 to PD-L2 protein, and the binding of mouse, M. fascicularis and human PD-L1 protein to humanized antibody anti-PD-L1-1 are tested. Different proteins are stored at […] in enveloping buffer at 4° C. overnight. Remove the solution in wells the next day and wash with PBST for twice. Then add 1% BSA, seal at 37° C. for 1 hour, then wash with PBST for twice. Add 0.5 μg/mL antibody samples, incubate for 1 hour, and wash with PBST for three times. Dilute with goat anti-human FAB-HRP at ratio of 1:10000, incubate for 1 hour at 37 C, and wash with PBST for three times. Add TMB for 15 min coloration, stop the reaction with 0.5M H₂SO₄ and read out the absorbance at 450 nm.
# hPD-L1-Fc [8] = target: T4, hPD-L1-Fc (human, UniProt Q9NZQ7 19-238, limits assumed); experiment: ELISA on coated hPD-L1-Fc, goat anti-mouse-HRP
# T4 construct: Plate-coated antigen in the Embodiment 1 ELISAs
# T4 sequence (Q9NZQ7 19-238 limits assumed): as the sequence (Q9NZQ7 19-238) above
# Description: A. ELISA Binding Activity [0084] Envelop hPD-L1-Fc on the plate, add gradient diluted antibody, incubate and wash it, and then add goat anti-mouse-HRP, perform coloration, and draw up the reaction curve by fitting of readings (the results as shown in FIG. 1) to calculate the EC50 value.
# [9] = target: T5, hPD-L1 on hPD-L1-Fc over-expressed cells (human, UniProt Q9NZQ7 19-290); experiment: cell inhibition assay: cells printed as PD1-27 (PD1 over-expressed CHO-K1), antibody, PD1-Fc-Biotin as competitor, Europium-labeled streptavidin
# T5 construct: whole, on cells; also called over-expressed hPD-L1-Fc cells
# T5 sequence (Q9NZQ7 19-290): as the sequence (Q9NZQ7 19-290) above
# From the text: D. Cell Inhibitory Activity [0090] Lay PD1-27 (PD1 over-expressed CHO-K1 stable transfected cells) on the cell plate for culture inspection one day ahead of schedule. After closure on the next day, add gradient-diluted antibody, then PD1-Fc-Biotin, then Europium-labeled streptavidin, and obtain the readings.
# [10] = target: T5, hPD-L1 on hPD-L1-Fc over-expressed cells; experiment: cell binding on hPD-L1-Fc over-expressed cells, anti-mouse-EU fluorescence
# From the text: C. Cell Binding Activity [0088] Lay hPD-L1-Fc over-expressed cells on the cell plate for culture inspection one day ahead of schedule. After closure on the next day, add gradient-diluted antibody, then anti-mouse-EU. And then obtain the readings.
# hPD-L1-Fc [11] = target: T4, hPD-L1-Fc; experiment: competition ELISA: antibody pre-incubated with hPD-L1-Fc-Biotin, added to a plate printed as coated with hPD-L1-Fc, SA-HRP
# Description: B. ELISA Inhibitory Activity [0086] Incubate the gradient diluted antibody and a certain concentration of hPD-L1-Fc-Biotin, then add the mixture to the plate enveloped with hPD-L1-Fc. Add SA-HRP to the plate after incubating and washing. Then perform coloration. Draw up the reaction curve by fitting of readings (see FIG. 2 for results) to calculate the IC50 value.
Binder,EC50 (read off the curve) [1] [µg/mL],EC50 [2] [µg/mL],EC50 (read off the curve) [3] [µg/mL],IC50 [4] [µg/mL],EC50 (read off the curve) [5] [µg/mL],EC50 [6] [µg/mL],EC50 (read off the curve) [7] [µg/mL],binding result (B7-1),EC50 (hPD-L1-Fc [8]) [µg/mL],IC50 [9] [µg/mL],EC50 [10] [µg/mL],IC50 (hPD-L1-Fc [11]) [nM]
"humanized antibody anti-PD-L1-1 (antibody, V domains shown, Expressed in CHO-KSM4 cells; also called humanized PD-L1 antibody) VH: EVQLVQSGAEVKKPGASVKVSCKASGYTFTKYIIHWVRQAPGQGLEWMGWFYPGSGNIRYNEKIKGRVTMTRDTSTSTVYMELSSLRSEDTAVYYCARHGELGGGYFFDYWGQGTTVTVSS VL: DIQLTQSPSFLSASVGDRVTITCRASSSVSNIHWYQQKPGKAPKPWIYATSNLASGVPSRFSGSGSGTEFTLTISSLQPEDFATYYCQQWSSNPLTFGQGTKLEIKR",~0.04,0.0195,~0.04,0.0432,~0.04,0.0935,~0.04,no binding (tested: 0.5 µg/mL antibody),–,–,–,–
"mouse anti-PD-L1 (antibody, V domains shown, also called mouse PD-L1 antibody; mouse anti-PD-L1 monoclonal antibody) VH: KVQLQQSGAELVKPGASVKLSCKASGYTFTKYIIHWIKQRSGQGLEWIGWFYPGSGNIRYNEKIKGKATLTADKSSSTVYMELSGLTSEDSAVYFCARHGELGGGYFFDYWGQGTTLTVSS VL: QIVLSQSPTILSASPGEKVTMTCRASSSVSNIHWYQQKTGSSPKPWIYATSNLASGAPVRFSGSGSGTSYSLTISRVEAEDAATYYCQQWSSNPLTFGPGTKLELKR",–,–,–,–,–,–,–,–,0.00167,0.638,0.0303,0.86
